The results in this text go back to patent US20180037645A1 (Bristol-Myers Squibb, published 2018).

Sequences and labels used below:
B1: IL-23 alanine shave mutant M5 (ligand, human)
chain 1: RAVPGGSSPAWTQCQQLSQKLCTLAWSAHPLVGAADLREEGDEETTNDVPHIQCGDGCDPQGLRDNSQFCLQRIHQGLIFYEKLLGSDIFTGAPSLAPASPVGQLHASLLGLSQLLQPEGHHWETQQIPSLSPSQPWQRLLLRFKILRSLQAFVAVAARVFAHGAATLSP
chain 2: IWELKKDVYVVELDWYPDAPGEMVVLTCDTPEEDGITWTLDQSSEVLGSGKTLTIQVKEFGDAGQYTCHKGGEVLSHSLLLLHKKEDGIWSTDILKDQKEPKNKTFLRCEAKNYSGRFTCWWLTTISTDLTFSVKSSRGSSDPQGVTCGAATLSAERVRGDNKEYEYSVECQEDSACPAAEESLPIEVMVDAVHKLKYENYTSSFFIRDIIKPDPPKNLQLKPLKNSRQVEVSWEYPDTWSTPHSYFSLTFCVQVQGKSKREKKDRVFTDKTSATVICRKNASISVRAQDRYYSSSWSEWASVPCS
B2: IL-23 alanine shave mutant M10 (ligand, human)
chain 1: B1 chain 1 with D36A, A93E, A97L, A99D, F144A
chain 2: B1 chain 2
B3: IL-23 alanine shave mutant M7 (ligand, human)
chain 1: B1 chain 1 with A34H, A35M, A93E, A97L, A99D, W123A, E124A, T125A, Q126A, Q127A
chain 2: B1 chain 2
B4: IL-23 alanine shave mutant M9 (ligand, human)
chain 1: B1 chain 1 with A34H, A35M, A93E, Q104A
chain 2: B1 chain 2

Changes are numbered by the printed parent chain.

The target of this assay is human IL-23Rα / human IL-12Rβ1 on BaF3 transfectants (human, UniProt Q5VWK5 24-629; P42701 24-662). Briefly: cell-based or functional assay.
Chain of human IL-23Rα / human IL-12Rβ1 on BaF3 transfectants (Q5VWK5 24-629, chain 1 of 2, other chains not shown): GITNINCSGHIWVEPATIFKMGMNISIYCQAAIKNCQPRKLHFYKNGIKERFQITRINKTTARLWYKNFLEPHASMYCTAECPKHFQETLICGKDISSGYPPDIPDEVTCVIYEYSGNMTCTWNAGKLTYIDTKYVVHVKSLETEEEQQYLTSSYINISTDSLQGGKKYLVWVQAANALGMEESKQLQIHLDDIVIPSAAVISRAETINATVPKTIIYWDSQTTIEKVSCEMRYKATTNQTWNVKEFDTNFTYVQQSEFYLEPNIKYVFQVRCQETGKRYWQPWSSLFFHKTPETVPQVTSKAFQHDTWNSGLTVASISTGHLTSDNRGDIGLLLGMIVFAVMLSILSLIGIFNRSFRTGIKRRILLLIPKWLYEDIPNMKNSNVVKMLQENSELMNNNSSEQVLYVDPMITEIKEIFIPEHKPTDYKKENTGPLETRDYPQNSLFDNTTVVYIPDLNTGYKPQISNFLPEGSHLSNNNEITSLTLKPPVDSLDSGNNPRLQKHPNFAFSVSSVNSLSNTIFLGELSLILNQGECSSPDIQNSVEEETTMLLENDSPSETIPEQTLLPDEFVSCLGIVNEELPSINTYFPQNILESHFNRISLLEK
Regarding B1, the “EC50, pSTAT3 in BaF3/huIL-23Rα/huIL-12Rβ1 transfectants” value amounted to 26 pM. The figure for B2 is 19 pM; for B3 it is 21 pM. Then B4, with 33 pM.
